From doi:10.1101/2020.06.29.177279 (bioRxiv, 2020)

How the values were obtained:
Experiment in all cases: cryo-EM structure
RPABC1 = RPABC1 (human (endogenous in HeLa), UniProt P19388 1-210)
RPC5 (from HeLa) = molecular target: T1, RPC5 (from HeLa) (human (endogenous in HeLa), UniProt Q9NVU0 1-708)
T1 sequence: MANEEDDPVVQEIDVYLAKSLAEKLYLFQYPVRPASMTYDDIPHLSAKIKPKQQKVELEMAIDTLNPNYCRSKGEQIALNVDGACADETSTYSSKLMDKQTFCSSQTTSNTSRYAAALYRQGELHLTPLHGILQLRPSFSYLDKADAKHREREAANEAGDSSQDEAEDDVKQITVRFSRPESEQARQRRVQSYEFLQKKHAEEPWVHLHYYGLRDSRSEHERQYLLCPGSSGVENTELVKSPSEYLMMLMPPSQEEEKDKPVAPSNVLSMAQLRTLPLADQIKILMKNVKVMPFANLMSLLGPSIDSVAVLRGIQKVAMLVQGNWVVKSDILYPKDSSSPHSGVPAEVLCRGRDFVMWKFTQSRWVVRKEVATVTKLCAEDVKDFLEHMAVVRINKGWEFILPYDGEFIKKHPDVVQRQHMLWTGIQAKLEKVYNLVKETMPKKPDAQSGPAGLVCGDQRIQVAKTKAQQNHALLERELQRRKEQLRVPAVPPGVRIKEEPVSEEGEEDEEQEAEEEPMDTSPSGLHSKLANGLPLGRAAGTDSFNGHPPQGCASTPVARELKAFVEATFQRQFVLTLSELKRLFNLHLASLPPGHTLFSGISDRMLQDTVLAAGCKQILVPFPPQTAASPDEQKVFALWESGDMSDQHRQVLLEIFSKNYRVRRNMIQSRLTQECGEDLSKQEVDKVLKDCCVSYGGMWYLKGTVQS

RPC8 = molecular target: T2, RPC8 (human (endogenous in HeLa), UniProt Q9Y535 1-204)
T2 sequence: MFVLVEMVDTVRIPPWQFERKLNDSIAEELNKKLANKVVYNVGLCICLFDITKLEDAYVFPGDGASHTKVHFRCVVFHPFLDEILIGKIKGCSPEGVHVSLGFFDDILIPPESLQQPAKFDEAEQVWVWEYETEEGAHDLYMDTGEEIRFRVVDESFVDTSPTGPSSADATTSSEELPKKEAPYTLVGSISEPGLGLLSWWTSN

B1: RPC1, largest subunit of human Pol III (from HeLa) (natural protein)
chain: MVKEQFRETDVAKKISHICFGMKSPEEMRQQAHIQVVSKNLYSQDNQHAPLLYGVLDHRMGTSEKDRPCETCGKNLADCLGHYGYIDLELPCFHVGYFRAVIGILQMICKTCCHIMLSQEEKKQFLDYLKRPGLTYLQKRGLKKKISDKCRKKNICHHCGAFNGTVKKCGLLKIIHEKYKTNKKVVDPIVSNFLQSFETAIEHNKEVEPLLGRAQENLNPLVVLNLFKRIPAEDVPLLLMNPEAGKPSDLILTRLLVPPLCIRPSVVSDLKSGTNEDDLTMKLTEIIFLNDVIKKHRISGAKTQMIMEDWDFLQLQCALYINSELSGIPLNMAPKKWTRGFVQRLKGKQGRFRGNLSGKRVDFSGRTVISPDPNLRIDEVAVPVHVAKILTFPEKVNKANINFLRKLVQNGPEVHPGANFIQQRHTQMKRFLKYGNREKMAQELKYGDIVERHLIDGDVVLFNRQPSLHKLSIMAHLARVKPHRTFRFNECVCTPYNADFDGDEMNLHLPQTEEAKAEALVLMGTKANLVTPRNGEPLIAAIQDFLTGAYLLTLKDTFFDRAKACQIIASILVGKDEKIKVRLPPPTILKPVTLWTGKQIFSVILRPSDDNPVRANLRTKGKQYCGKGEDLCANDSYVTIQNSELMSGSMDKGTLGSGSKNNIFYILLRDWGQNEAADAMSRLARLAPVYLSNRGFSIGIGDVTPGQGLLKAKYELLNAGYKKCDEYIEALNTGKLQQQPGCTAEETLEALILKELSVIRDHAGSACLRELDKSNSPLTMALCGSKGSFINISQMIACVGQQAISGSRVPDGFENRSLPHFEKHSKLPAAKGFVANSFYSGLTPTEFFFHTMAGREGLVDTAVKTAETGYMQRRLVKSLEDLCSQYDLTVRSSTGDIIQFIYGGDGLDPAAMEGKDEPLEFKRVLDNIKAVFPCPSEPALSKNELILTTESIMKKSEFLCCQDSFLQEIKKFIKGVSEKIKKTRDKYGINDNGTTEPRVLYQLDRITPTQVEKFLETCRDKYMRAQMEPGSAVGALCAQSIGEPGTQMTLKTFHFAGVASMNITLGVPRIKEIINASKAISTPIITAQLDKDDDADYARLVKGRIEKTLLGEISEYIEEVFLPDDCFILVKLSLERIRLLRLEVNAETVRYSICTSKLRVKPGDVAVHGEAVVCVTPRENSKSSMYYVLQFLKEDLPKVVVQGIPEVSRAVIHIDEQSGKEKYKLLVEGDNLRAVMATHGVKGTRTTSNNTYEVEKTLGIEAARTTIINEIQYTMVNHGMSIDRRHVMLLSDLMTYKGEVLGITRFGLAKMKESVLMLASFEKTADHLFDAAYFGQKDSVCGVSECIIMGIPMNIGTGLFKLLHKADRDPNPPKRPLIFDTNEFHIPLVT
Does B1 bind (RPABC1)?
Result: binds

B2: RPC4 (from HeLa) (natural protein)
chain: MSEGNAAGEPSTPGGPRPLLTGARGLIGRRPAPPLTPGRLPSIRSRDLTLGGVKKKTFTPNIISRKIKEEPKEEVTVKKEKRERDRDRQREGHGRGRGRPEVIQSHSIFEQGPAEMMKKKGNWDKTVDVSDMGPSHIINIKKEKRETDEETKQILRMLEKDDFLDDPGLRNDTRNMPVQLPLAHSGWLFKEENDEPDVKPWLAGPKEEDMEVDIPAVKVKEEPRDEEEEAKMKAPPKAARKTPGLPKDVSVAELLRELSLTKEEELLFLQLPDTLPGQPPTQDIKPIKTEVQGEDGQVVLIKQEKDREAKLAENACTLADLTEGQVGKLLIRKSGRVQLLLGKVTLDVTMGTACSFLQELVSVGLGDSRTGEMTVLGHVKHKLVCSPDFESLLDHKHR
Does B2 bind (RPC5 (from HeLa))?
Result: binds

B3: RPC9 (natural protein)
chain: not shown
Does B3 bind (RPC8)?
Result: binds
